The target in assay [1] is T1, Recombinant human PD-1 protein (Homo sapiens, UniProt Q15116).
T1 construct: purchased Abcam (Cambridge, UK)
Nature of the assay: SPR binding of peptides or PD-L1 to immobilized PD-1 (Biacore X100). As to the method: Peptides of lyophilized powder were dissolved in sterile milli-Q H2O to a stock concentration of 1 mM for use in surface plasmon resonance (SPR) analysis. […] All synthetic peptides and proteins were equally packaged to avoid repeated freeze–thaw cycles.
The HBS-EP buffer (10×) was diluted 10-fold with sterile deionized water, filtered through a 0.22-μm membrane filter, and degassed immediately before the experiment as running buffer with a flow rate of 30 μL/min for the instrument system. The purified active PD-1 was diluted by 10 mM sodium acetate solution at pH 4.5, resulting in a protein concentration of 50 μg/mL. Coupling conditions were determined by protein isoelectric points and previous reports. The diluted protein was immobilized on the surface of a CM5 sensor chip via the primary amine group, employing a standard Amine Coupling Kit, and the target immobilization level was 5000 response units (RUs). The flow cell 1 […] any modification was used as a reference to correct the system error. The RU values were collected, and all the binding affinity data was calculated by kinetic models (1:1 interaction) within Biacore X100 Evaluation Software.
Each concentration was injected into the channel for 120 and 150 s for dissociation. Then, 10 mM glycine 3.0 or glycine 2.5 was utilized to regenerate the sensor chip surface. The equilibrium dissociation constant (KD) was calculated to evaluate the ability of peptides to interact with PD-1.

Assay [2] concerns the target T2, Recombinant human PD-1 protein (programmed cell death protein 1) (human, UniProt Q15116 25-170).
T2 construct: programmed cell death protein 1 (PD-1), human, recombinant, bought from Abcam; the results speak of the immobilised ectodomain; also called hPD-1; CD279; source: bought: Abcam
Nature of the assay: SPR; Biacore X100, 25 °C; PD-1 amine-coupled to a CM5 chip (target 5000 RU); peptide as analyte in HBS-EP buffer pH 7.4 (2-64 μM WANG-003, 1-16 μM WANG-004, 1.5625-100 μM WANG-005), 30 μL/min, 120 s injection, 150 s dissociation; regeneration 10 mM glycine 3.0 or 2.5; 1:1 kinetic model; three single runs. The note with it: both partners purified.
T2 sequence (Q15116 25-170): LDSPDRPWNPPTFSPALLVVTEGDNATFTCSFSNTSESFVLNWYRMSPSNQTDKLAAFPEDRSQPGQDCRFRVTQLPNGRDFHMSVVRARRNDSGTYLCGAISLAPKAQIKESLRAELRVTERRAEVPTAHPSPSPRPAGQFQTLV

The target of assay [3] is T3, Recombinant human PD-1 protein (programmed cell death protein 1) (human, UniProt Q15116 25-170).
T3 construct: Programmed cell death protein 1 (PD-1), human, recombinant, bought from Abcam; the results call the immobilised protein an ectodomain; No catalogue number, limits or tags are printed; The UniProt ID Q15116 is printed for the docking model, not for the bought protein; also called CD279; purified active PD-1; source: bought: Abcam
Description: SPR; Biacore X100, 25 °C; PD-1 immobilised on a CM5 chip by amine coupling (target 5000 RU); peptides as analytes in HBS-EP (2–64 μM WANG-003, 1–16 μM WANG-004, 1.5625–100 μM WANG-005, 62.5–1000 μM WANG006, 3.125–100 μM WANG007), 120 s injection and 150 s dissociation; 30 μL/min; 1:1 kinetic model. The note with it: both partners purified. Background: In SPR one partner is held on a chip, and binding of the other changes the refractive index at the surface.
T3 sequence (Q15116 25-170): as above

Where “and” joins values, the source holds several entries; their conditions need not be identical. Equal values may be shown once. Read-outs that look alike come from different tables or passages of the source. Ends that are not written are not given here.

One may read the kon as the rate constant with which the complex forms. A word on the Kd: it is a measure of binding affinity in units of concentration. The term koff denotes the rate constant with which the complex falls apart.

T1 sequence (Q15116 25-170 limits assumed): as the sequence (Q15116 25-170) above

As for “KRWWR-NH2 (C-terminus assumed) [WANG-003, KRWWR-NH2]”, in assay [1], the “binding affinity to PD-1 (in words)” value is “moderate affinity”.
Regarding “FRWWR-NH2 (C-terminus assumed) [WANG-004, FRWWR-NH2]”, the results for the “binding affinity to PD-1 (in words)” value in assay [1] and in assay [1] (listed as FRWWR-NH2) were “moderate affinity” and “moderate binding affinity”, respectively.
As for YVAM-NH2 [WANG-006], the “binding affinity to PD-1 (in words)” value in assay [1] is “did not show binding affinities”.
Take YVAE-NH2 [WANG-007]: the “binding affinity to PD-1 (in words)” value in assay [1] is recorded as “did not show binding affinities”.
In the case of RRWQWR-NH2 [WANG-005, RRWQWR-NH2], the “binding affinity to PD-1 (in words)” value in assay [1] was “moderate affinity”.

B1: WANG-005 (RRWQWR-NH2) (peptide)
chain: RRWQWR-NH2
In the case of B1, the kon in assay [2] is 658 M⁻¹ s⁻¹ and 436 M⁻¹ s⁻¹ and 494 M⁻¹ s⁻¹.

B2: WANG-003 (KRWWR-NH2) (peptide)
peptide: KRWWR-NH2
notes: in-house synthetic peptide; source: synthetic peptide
Turning to B2, in assay [2], the Kd was 2100 nM and 4610 nM and 3350 nM; the koff is 0.00258 s⁻¹ and 0.00446 s⁻¹ and 0.00365 s⁻¹; the kon is 1230 M⁻¹ s⁻¹ and 967 M⁻¹ s⁻¹ and 1090 M⁻¹ s⁻¹.

B3: WANG-004 (FRWWR-NH2) (peptide)
peptide: FRWWR-NH2
notes: as for B2
For B3, in assay [2], the Kd is 1380 nM and 2070 nM and 1450 nM; the koff was 0.00383 s⁻¹ and 0.00438 s⁻¹ and 0.00401 s⁻¹; the kon was 2770 M⁻¹ s⁻¹ and 2120 M⁻¹ s⁻¹ and 2760 M⁻¹ s⁻¹.

B4: WANG-003 (peptide)
peptide: KRWWR-NH2
notes: in-house synthetic peptide; also called KRWWR-NH2; KRWWR; source: synthetic peptide (solid phase, HPLC purified)
Take B4: the Kd in assay [3] was 3350 ± 1030 nM.

B5: WANG-004 (peptide)
peptide: FRWWR-NH2
notes: in-house synthetic peptide; also called FRWWR-NH2; FRWWR; source: synthetic peptide (solid phase, HPLC purified)
For the molecule B5, the Kd in assay [3] turned out to be 1630 ± 309 nM.
